PMC3166620

Key:
Biotinylated CHIP = Biotinylated CHIP (UniProt Q9UNE7); test: BLI
[1] = target: Biotinylated Ub-CHIP (monoubiquitinated CHIP) (UniProt P0CG48); test: BLI

UniProt Q9UNE7, sequence (Q9UNE7 whole entry): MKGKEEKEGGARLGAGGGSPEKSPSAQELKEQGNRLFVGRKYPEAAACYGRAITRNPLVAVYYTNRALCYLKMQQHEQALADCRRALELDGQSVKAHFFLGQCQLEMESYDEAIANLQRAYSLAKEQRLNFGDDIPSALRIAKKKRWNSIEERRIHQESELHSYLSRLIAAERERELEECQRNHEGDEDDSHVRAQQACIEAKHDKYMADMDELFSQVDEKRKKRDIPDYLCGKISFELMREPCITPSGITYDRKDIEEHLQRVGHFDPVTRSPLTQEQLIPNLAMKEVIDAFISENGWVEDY

Kd (Biotinylated CHIP) [µM]	Kd [1] [µM]	Substance
2.2	0.12	ataxin-3, normal (Q22), recombinant (from UniProt P54252 1-361) (enzyme)
0.39	0.75	ataxin-3, polyglutamine-expanded (Q80), recombinant (from UniProt P54252 1-361) (enzyme)
